Experimental data published in the DeepSol protein solubility set.

Test: soluble on expression in E. coli; label from the status in PepcDB or PDB records

Row | Sequence | soluble on expression in E. coli
1 | MSLTDQKPVPVFDGHNDVLLRLWRSGNTSPETLLIEGDTVGHIDLPRARKGGLAGGLCAIYVPSPSMEKDANGDFSTPTEADALKATLGMAALLFRAEKQSAGALKVCRTAADIRSAMAEGAFASVFHIEGAEAIGDDLDALHVLHEAGLRTLGPVWSRPNIFAYGVPFRFPSTPDIGPGLTDTGKRLVKTCNELKIMVDLSHMNEQGFWDIAKISDAPLVASHSNAYALCNHSRNLTEGHHHHHH | soluble
2 | MKCVVCGRNEAVEHGMCSSCIYDNTNVENIGPVSLVFCPKCGSIRIGKKWYRDSYGNKLLPMLLDEVKCSDVNARISGDEKGIFFDEKNKQIILPVTIKRSNMKDKIQNVAIPYSVTYISCPTCNKITGSYFEATIQLRTVSTKYDNILESVLESIEAIVEKRKKEDAESFISKVEKKPEGIDIYLGKRTDGDVVSSFVLDHFFSSIIVTKTLAGVKDGKKFFRFTYSLRILDAKEGSLEHHHHHH | not soluble
3 | AAPTAIEHMEPPFWWAGMQHKGLQLMVHGRDIGRMEAALDYPGVRLVSPTRVPNANYLFVDLEIGPEAQPGSFDIVFKGDGRSERYRYRLLAREQGSAQRQGFGPGDAIYQIMPDRFANGDPSNDNVAGMREQADRRHGGGRHGGDIRGTIDHLDYIAGLGFTQLWPTPLVENDAAAYSYHGYAATDHYRIDPRYGSNEDFVRLSTEARKRGMGLIQDVVLSHIGKHHWWMKDLPTPDWINYGGKFVPTQHHRVAVQDPYAAQADSENFTKGWFVEGMPDLNQTNPLVANYLIQNNIWWIEYAGLSGLRIDTYGYSDGAFLTEYTRRLMAEYPRLNMVGQEWSTRVPVVARWQRGKANFDGYTSHLPSLMDFPLVDAMRNALSKTGEENGLNEVYETLSLDYLYPEPQNLVLFGGNHDMARMFSAAGEDFDRWRMNLVFLMTMPRIPQFYSGDEILMTSTVKGRDDASYRRDFPGGWAGDKANAFSGAGLTSQQRAAQDLVRKLANWRKNQPVIHNGRLMHFGPEENTWVYFRYNKDKRIMVAMNNNDKPMTLPTARFQEMLKGAPSGVDFLSGKTVGLGRELRLAPKSVVVIELPGLPEA | soluble
4 | MDAFIVDPVQGELYSGLSHTELADIIRLADSVENQLNGGNSFLDVFSTYMGQVISEFMHSNDNRIELLQRRLHSCSFLVNIEEMSYIDEALQCPITLAIPQRGVFLRNAEGSRVCSLYDEMALSRIINDGMHHPLSREPITLSMLVAREQCEFDCSIGHFTVRSDCYSV | soluble
5 | MADSAELKQMVMSLRVSELQVLLGYAGRNKHGRKHELLTKALHLLKAGCSPAVQMKIKELYRRRF | soluble
6 | MSRYGRYGGETKVYVGNLGTGAGKGELERAFSYYGPLRTVWIARNPPGFAFVEFEDPRDAEDAVRGLDGKVICGSRVRVELSTGMPRRSRFDRPPARRPFDPNDRCYECGEKGHYAYDCHRYSRRRRSRSRSRSHSRSRGRRYSRSRSRSRGRRSRSASPRRSRSISLRRSRSASLRRSRSGSIKGSRYFQSPSRSRSRSRSISRPRSSRSKSRSPSPKRSRSPSGSPRRSASPERMD | not soluble
7 | MSEMGKYKPPAERKYGKGVQSCQRCGSKDSVIQKYGIYLCRQCFREVAYELGFRKYW | soluble
8 | MFSGIKGPNPSDLKGPELRILIVHARWNLQAIEPLVKGAVETMIEKHDVKLENIDIESVPGSWELPQGIRASIARNTYDAVIGIGVLIKGSTMHFEYISEAVVHGLMRVGLDSGVPVIFGLLTVLNEEQALYRAGLNGGHNHGNDWGSAAVEMGLKALY | soluble
9 | MGSDKIHHHHHHMPVKLAQALANPLFPALDSALRSGRHIGLDELDNHAFLMDFQEYLEEFYARYNVELIRAPEGFFYLRPRSTTLIPRSVLSELDMMVGKILCYLYLSPERLANEGIFTQQELYDELLTLADEAKLLKLVNNRSTGSDVDRQKLQEKVRSSLNRLRRLGMVWFMGHDSSKFRITESVFRFGADVRAGDDPREAQRRLIRDGEAMPIENHLQLNDETEENQPDSGEEE | not soluble
10 | MSTVLGTFKRMNEGWTQWPSYGHAFGVRLHKLRRLRGLTQDGLAEIANLSRNQISNLERNENSATKSSDPTMSTIYRLARALHVPPAALMPAVGDYVTDICQDTGHELPIDIAWPTSSQDTQKFSIQYRYRYWDEQSPLFDDEDWDDDHADDPDFGIAVMPETSDNNDADTTKGGDDTEDRGDVDKRDDDPLA | not soluble
11 | MGSSHHHHHHSSGLVPRGSHMAVSGPDDYLQHSIVPTMHYQDSLPRLPIPKLEDTMKRYLNAQKPLLDDSQFRRTEALCKNFETGVGKELHAHLLAQDKQNKHTSYISGPWFDMYLTARDSIVLNFNPFMAFNPDPKSEYNDQLTRATNLTVSAVRFLKTLQAGLLEPEVFHLNPSKSDTDAFKRLIRFVPPSLSWYGAYLVNAYPLDMSQYFRLFNSTRIPRPNRDELFTDTKARHLLVLRKGHFYVFDVLDQDGNIVNPLEIQAHLKYILSDSSPVPEFPVAYLTSENRDVWAELRQKLIFDGNEETLKKVDSAVFCLCLDDFPMKDLIHLSHTMLHGDGTNRWFDKSFNLIVAEDGTAAVHFEHSWGDGVAVLRFFNEVFRDSTQTPAITPQSQPAATNSSASVETLSFNLSGALKAGITAAKEKFDTTVKTLSIDSIQFQRGGKEFLKKKQLSPDAVAQLAFQMAFLRQYGQTVATYESCSTAAFKHGRTETIRPASIFTKRCSEAFVRDPSKHSVGELQHMMAECSKYHGQLTKEAAMGQGFDRHLYALRYLATARGLNLPELYLDPAYQQMNHNILSTSTLNSPAVSLGGFAPVVPDGFGIAYAVHDDWIGCNVSSYSGRNAREFLHCVQKCLEDIFDALEGKAIKT | soluble
12 | MGSDKIHHHHHHMIYIGLPQWSHPKWVRLGITSLEEYARHFNCVEGNTTLYALPKPEVVLRWREQTTDDFRFCFKFPATISHQAALRHCDDLVTEFLTRMSPLAPRIGQYWLQLPATFGPRELPALWHFLDSLPGEFNYGVEVRHPQFFAKGEEEQTLNRGLHQRGVNRVILDSRPVHAARPHSEAIRDAQRKKPKVPVHAVLTATNPLIRFIGSDDMTQNRELFQVWLQKLAQWHQTTTPYLFLHTPDIAQAPELVHTLWEDLRKTLPEIGAVPAIPQQSSLF | not soluble
13 | MNSVGFYGKLAGRGDFVSRGLPNTFVEPWDAWLASGMRASQDELGAAWLDAYLTSPLWRFAIAPGLLGGEAVTGVVMPSIDRVGRYFPLTVACLLPANADLGGLVGGDDGWFEQVESLLLSTLEPEAEVEAFEQAVAQLPAPPCGPRIEQSLISGNLLRSEAVTPAQRLAALAQHACDGASHWWGRGSARISAGLMRYQGLPPAPAFGRFLTGEGEVIPLFPGIPG | soluble
14 | MEYRSLTLDDFLSRFQLLRPQINRETLNHRQAAVLIPIVRRPQPGLLLTQRSIHLRKHAGQVAFPGGAVDDTDASAIAAALREAEEEVAIPPSAVEVIGVLPPVDSVTGYQVTPVVGIIPPDLPYRASEDEVSAVFEMPLAQALHLGRYHPLDIYRRGDSHRVWLSWYEQYFVWGMTAGIIRELALQIGVKPMGHHHHHHSH | not soluble
15 | MAIWQGASRRLSTGAKVWRAAKKHKREMGRPAAETQVSDKIKRKIVRCRGANLKVKLEKTNYANVFDQANKVCKKVVVTNVIDNKANKHYIRRNVMTKGAIIETEMGKAKVTSRPGQDGVVNAILLTELEHHHHHH | soluble
16 | MTENVPLTRPQLRRLLRNARRALTPAQQRQATLGLYRQLAQHPLFRRARHIALYLPNDGEIDPRLLMREAQRRGKCIYLPVLHAWPRTRMVFQRFEQGEKLKPNRFRIPEPIIDRKRQRPIWALDLILLPLVGFDEVGGRLGMGGGFYDRSLAYQARRQTWKKPLLLGLAHECQKVERLAQASWDVPLQGTVSDRGWYLAPRLEHHHHHH | soluble
17 | MCPPYGANKFSRKKVMYVIVDIQGQQMKVEQGRRLFVHHIKDVESGASVEFDKVLLVDNNGAITVGSPLVEGAKVVCEVLTPLVKGDKVLIFHKKRRKGYRKLNGHRQQFTEILVKEVVA | not soluble
18 | MIERRKIAVIGSGQIGGNIAYIVGKDNLADVVLFDIAEGIPQGKALDITHSMVMFGSTSKVIGTNDYADISGSDVVIITASIPGRPKDDRSELLFGNARILDSVAEGVKKYCPNAFVICITNPLDVMVSHFQKVSGLPHNKVCGMAGVLDSSRFRTFIAQHFGVNASDVSANVIGGHGDGMVPATSSVSVGGVPLSSFIKQGLITQEQIDEIVCHTRIAWKEVADNLKTGTAYFAPAAAAVKMAEAYLKDKKAVVPCSAFCSNHYGVKGIYMGVPTIIGKNGVEDILELDLTPLEQKLLGESINEVNTISKVLDNAPAAGA | soluble
19 | MTTNDTYEATYAIPMHCENCVNDIKACLKNVPGINSLNFDIEQQIMSVESSVAPSTIINTLRNCGKDAIIRGAGKPNSSAVAILETFQKYTIDQKKDTAVRGLARIVQVGENKTLFDITVNGVPEAGNYHASIHEKGDVSKGVESTGKVWHKFDEPIECFNESDLGKNLYSGKTFLSAPLPTWQLIGRSFVISKSLNHPENEPSSVKDYSFLGVIARSAGVWENNKQVCACTGKTVWEERKDALANNIK | soluble
20 | PTGNNAEICLLPLDYGPCRALLLRYYYDRYTQSCRQFLYGGCEGNANNFYTWEACDDACWRIE | soluble
21 | MNVSVLNFGNTPVSFRQDGFLNATAIASHFGKLPKDYLKSEQTQQYISALAENLSVRRKILTEANQIVIVKRGGSEQGTWLHPKLAIHFARWLNPKFAVWCDEQIEILLNGKISDGIKTVTPKPTRALPDGLTGEQIEAVKKLHNALTKSAPKEAQARIAITLWSAVKSKFGCSYKEVPAEQFPEVLSVMGRVAVENGVLYGEVLDREPLPAPQPALPISGNALYDLAVAVRYGAWAIQMGRDVSLPLKQLGCKQAVTMWTVWAETRSRLKAAANALEALNAHADAEHAAKIRPMLPEIRNLSSV | not soluble
22 | MGSDKIHHHHHHMANGTTPSVGIALGSGAAKGWAHIGVLNGLAAMGIKPDKVAGCSVGALVGAAYAHDHLPELEEWVRSFSSWDVLGLMDIRWRKGGLIGGDKVFDVLQARIGDVNIENLNRPFAAVATDLYSGQEIWFTEGDLRQAVRASCSMPGILAPVRQGDRWLVDGAVVNPVPVSVSRAMGVDVVIAVDLYGYHSGRIQVLPVSMTSQKNVEAEMDMSARQETGFMDLFARGRDYVSNLTDKFSLGTKSNPGMIAVMSQSMGILEQRHKRARLMGDPPDICIVPEVGNIGTMEFHRADEAIAAGEAAVEKVAHLIEAALWKG | not soluble
23 | SESQEEIIHNIARHLAQIGDEMDHNIQPTLVRQL | soluble
24 | MSRVPYGYEIIQLLEQLAPKQLAMEGDRIGLQIGTLNKPVKKVMIALDVLEDVVVEAIDQQVDLIIAHHPPLYRPLKQLLTDDGHGRMIAACIKHDIAVYAAHTNLDVADGGLNDWLAEALGLNDTAVLVPTYTEPLKKLVVYVPVTHAEVVRKALGDAGAGHIGRYSHCTFNSRGVGTFLPHEGARPFIGEQGRLEEVEEVRIETIVPASLEREAIQAMLAVHPYEEVAYDIYPLDNEGRRFGLGRIGRLPQPVTLGAFAEQVKTAFSVPAVRVVGRLDDLVQTVAVLGGDGNKFVAAAASAGADVYVTGDVYYHTAHDAQALGLHIIDPGHNVEKIMKEGVARYLITELSKRQWEAEVVASSVHTDPFQFV | not soluble
25 | MSLTIKNSLGQSHDYIKMFVKEGDTVVDATCGNGNDTAFLASLVGENGRVFGFDIQDKAIANTTKKLTDLNLIDRVTLIKDGHQNMDKYIDCPVKAVMFNLGYLPSGDHSISTRPETTIQALSKAMELLVTGGIITVVIYYGGDTGFEEKEKVLEFLKGVDQKKFIVQRTDFINQANCPPILVCIEKISEGHHHHHH | soluble
